This is an account of results in article PMC2234240 (The Journal of Cell Biology, 2008).

This test concerns the target T1, GST-Rsa1p (yeast (S. cerevisiae), UniProt Q08932 1-381).
T1 sequence: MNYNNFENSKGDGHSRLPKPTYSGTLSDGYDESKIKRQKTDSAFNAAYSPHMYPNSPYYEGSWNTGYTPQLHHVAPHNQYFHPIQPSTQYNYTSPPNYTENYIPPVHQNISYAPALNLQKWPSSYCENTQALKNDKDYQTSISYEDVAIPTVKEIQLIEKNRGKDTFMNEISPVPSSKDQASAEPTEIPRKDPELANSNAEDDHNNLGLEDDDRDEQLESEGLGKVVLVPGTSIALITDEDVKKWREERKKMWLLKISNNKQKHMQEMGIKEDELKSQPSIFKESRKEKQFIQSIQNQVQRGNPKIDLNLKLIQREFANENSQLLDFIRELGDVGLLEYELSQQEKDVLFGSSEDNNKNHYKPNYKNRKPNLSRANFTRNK
In words: pull-down.

B1: recombinant Snu13p (natural protein)
chain: MSAPNPKAFPLADAALTQQILDVVQQAANLRQLKKGANEATKTLNRGISEFIIMAADCEPIEILLHLPLLCEDKNVPYVFVPSRVALGRACGVSRPVIAASITTNDASAIKTQIYAVKDKIETLLI
For B1, the binding result is “binds”.
